From US20220227882A1 (TRUSTEES OF TUFTS COLLEGE, published 2022)

T1: Full-length human ADAM8 on cells (HEK293-ADAM8 stable or transfected cells); also endogenous ADAM8 of breast … (human, UniProt P78325 17-824)
T1 construct: On cells the proform, the active form and the remnant form can all be present; also called native ADAM8; HEK293-A8
T1 sequence: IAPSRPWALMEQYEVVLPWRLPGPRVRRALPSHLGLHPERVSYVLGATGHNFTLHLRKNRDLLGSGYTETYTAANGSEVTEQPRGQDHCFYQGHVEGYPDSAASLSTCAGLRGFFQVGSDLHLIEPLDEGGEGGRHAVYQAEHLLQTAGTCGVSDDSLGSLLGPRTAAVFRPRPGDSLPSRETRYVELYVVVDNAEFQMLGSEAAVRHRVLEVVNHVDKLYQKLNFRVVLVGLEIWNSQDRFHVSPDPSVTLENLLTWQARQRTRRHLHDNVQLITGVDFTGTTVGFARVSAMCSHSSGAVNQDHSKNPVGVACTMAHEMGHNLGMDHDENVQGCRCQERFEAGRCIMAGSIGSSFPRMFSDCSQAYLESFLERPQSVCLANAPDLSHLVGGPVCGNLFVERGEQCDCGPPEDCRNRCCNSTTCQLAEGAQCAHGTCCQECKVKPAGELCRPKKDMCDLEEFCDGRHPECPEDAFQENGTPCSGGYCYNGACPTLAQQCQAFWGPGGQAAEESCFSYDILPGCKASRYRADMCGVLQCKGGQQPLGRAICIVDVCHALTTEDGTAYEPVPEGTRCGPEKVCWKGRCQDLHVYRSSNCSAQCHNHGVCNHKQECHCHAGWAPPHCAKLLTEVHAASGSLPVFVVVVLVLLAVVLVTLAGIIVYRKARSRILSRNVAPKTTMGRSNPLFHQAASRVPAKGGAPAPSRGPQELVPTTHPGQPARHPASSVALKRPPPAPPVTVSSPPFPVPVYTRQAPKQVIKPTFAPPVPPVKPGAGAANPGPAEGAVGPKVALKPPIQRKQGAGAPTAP

T2: Recombinant human ADAM8 (rHuADAM8) ectodomain protein (aa 17-497), ACRO Biosystems AD8-H5223 (human, UniProt P78325 17-497)
T2 construct: Bought protein made in HEK293 cells; The protein clips off its own prodomain (aa 17-191); also called rhADAM8; immunogen
T2 sequence: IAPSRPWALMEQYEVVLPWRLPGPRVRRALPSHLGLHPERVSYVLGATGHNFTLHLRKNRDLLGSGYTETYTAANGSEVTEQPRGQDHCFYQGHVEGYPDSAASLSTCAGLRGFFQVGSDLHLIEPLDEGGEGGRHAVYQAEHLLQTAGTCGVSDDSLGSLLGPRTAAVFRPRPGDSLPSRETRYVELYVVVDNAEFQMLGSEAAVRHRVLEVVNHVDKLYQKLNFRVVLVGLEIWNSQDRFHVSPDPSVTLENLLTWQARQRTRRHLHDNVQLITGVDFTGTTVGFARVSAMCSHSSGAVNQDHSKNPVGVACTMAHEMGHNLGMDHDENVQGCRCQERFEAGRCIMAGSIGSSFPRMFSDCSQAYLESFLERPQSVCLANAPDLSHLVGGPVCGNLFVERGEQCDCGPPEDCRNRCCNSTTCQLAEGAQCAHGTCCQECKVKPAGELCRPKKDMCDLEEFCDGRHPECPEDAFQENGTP


Legend:
[1] = molecular target: T1, Full-length human ADAM8 on cells …; assay: FACS, HEK293-ADAM8 cells, antibody 10 µg/ml
[2] = molecular target: T2, Recombinant human ADAM8 (rHuADAM8) …; assay: adhesion of α9β1 integrin CHO cells to coated rHuADAM8, antibody 20 µg/ml, vs isotype control IgG; mean ± S.D., n=3
Text: To mimic this process and evaluate both the presence of an active DI domain on rHuADAM8 and the ability of ADPs to inhibit this activity in vitro, adhesion of Chinese Hamster Ovary (CHO) cells expressing α9β1 integrin vs the negative control αvβ3 integrin was used (Rao et al., J Bone Miner Res, 21(10): 1657-1665, 2006). CHO cells were maintained in DMEM high glucose (Invitrogen) supplemented with 10% FBS, 1% penicillin/streptomycin (Hyclone), L-glutamine (Gibco), non-essential amino acids (Gibco) and 100 μg/ml G418 (Teknova). Adhesion of CHO cells expressing α9β1 integrin or αvβ3 integrin to plates coated with rHuADAM8 (Acro Biosystems, AD8-H5223) was assessed as follows. Briefly, 96-well plates were coated overnight with 1.5 μg of rHuADAM8 per well, blocked with 1% BSA and washed with PBS.
To assess the ability of ADPs to inhibit DI activity, 96-well plates coated with rHuADAM8 as above were pre-treated in duplicate for 2 hours with either PBS, 20 μg/ml of dialyzed or protein A purified ADP, MAB1031 or control isotype-matched IgGs. Unattached cells were washed off and attached cells counted as above.

[3] = molecular target: T1, Full-length human ADAM8 on cells …; assay: cell-based or functional assay
[4] = molecular target: T1, Full-length human ADAM8 on cells …; assay: FACS, HEK293-ADAM8 cells, antibody 0.1 µg/ml

Binder | MFI [1] | % inhibition of α9β1 integrin binding to ADAM8 [2] | % inhibition of CD23 cleavage (MP activity), HEK293 cells co-expressing CD23 and ADAM8, antibody 20 µg/ml [3] | % inhibition of transendothelial migration of MDA-MB-231 cells through HUVEC, antibody 20 µg/ml [3] | MFI [4]
ADP13 (antibody, IgG1, V domains shown, also called mADP13; mouse ADP13) VH: EVQLQQSGPEMVKPGTSVKISCKASGYTFTDYYINWVKQSHGKSLEWIGDISPNIGGATYNPKFKGKAILTVDKSARTAYMELRSLTSEDSAVYCCTRGGSSYPYFYAMDYWGQGTSVTVSS VL: DIVMSQSPSSLAVSVGEKVTMSCKSSQSLLYSSNQKKYLAWYQQKPGQSPKLLIYWASTRESGVPDRFTGSGSGTDFTLTISSVKAEDLAVYYCQQFYSYPYTFGGGTKLEINR | 62.2 MFI | 78.5 % inhibition | 79.1 % inhibition | 54.5 % inhibition | 7.1 MFI
ADP2 (antibody, V domains shown, also called mADP2; mouse ADP2) VH: EVKLVESGGGLVQPGGSLSLSCAASGFSFPDYYMSWVRQPPGKALEWLGFIRDSANGYTTEYIASVKGRFTFSRDNSQSILYLQMNALRAEDSATYYCARYSRYYGMDYWGQGTSVTVSS VL: SIVMTQTPKILLVSAGDRVTITCKASQTVNYDVAWYQQKPGQSPKPVIYFASNRYTGVPDRFTGSGFGTDFTFTISTVQAEDLAVYFCQQDYSAPWTFGGGTKLEIK | 158 MFI | 72 % inhibition | 62.6 % inhibition | 37.6 % inhibition | 58.4 MFI
ADP3 (antibody, IgG1, V domains shown) VH: EVKLEESGGGLVQPGGSMKLSCAASGFTFSDAWMDWVRQSPEKGLEWVAEIRGKVNNLATYYVESVKGRFTISRDDSKSSVYLQMNSLRAEDTGIYYCLGRYDATYAMDYWGQGTSVTVSS VL: DVVMTQTPLSLPVSLGDQASISCRSSQSLVHSDGNTYLHWYLQKPGQSPKLLIYKLSNRFSGVPDRFSGSGSGTDFTLKISRVEAEDLGVYFCSQSTHVPWTFGGGTKLEIK | 86.9 MFI | 69.3 % inhibition | 79.9 % inhibition | 44.5 % inhibition | 51.8 MFI
